1 protein from article PMC4446944, “The maize cytochrome P450 CYP79A61 produces phenylacetaldoxime and indole-3-acetaldoxime in heterologous systems and might contribute to plant defense and auxin formation” (BMC Plant Biology, 2015) can be followed below.

Substrate in series [1]: N[C@@H](Cc1ccccc1)C(=O)O
In words: yeast microsomes, LC-MS/MS of (E/Z)-phenylacetaldoxime formed. The format is biochemical, Zea mays. As to conditions: 1 mM NADPH, 75 mM sodium phosphate pH 7.0, 25 °C, 30 min, microsomes with Arabidopsis CPR1.

Substrate in series [2]: N[C@@H](Cc1c[nH]c2ccccc12)C(=O)O
In words: yeast microsomes, LC-MS/MS of (E/Z)-indole-3-acetaldoxime formed. As to conditions: 1 mM NADPH, 75 mM sodium phosphate pH 7.0, 25 °C, 30 min, microsomes with Arabidopsis CPR1. The format is biochemical, Zea mays.

B1: CYP79A61 (Zea mays subsp. mays) (protein)
chain: MVSSPQANKFPLRKQISSPSSSCMAPHVLLVLVILLYLVRTLRPWRSRRNSTCCTPSLPPGPVPWPVVGNLPEMMLSDKPAFHWIHHIMKEAGTDIACIKLGGVHVIPISCPKIALEVLSNQDANFASRPLTFASKTFSTGYRDAAMSHCGDHWKKMRRVLASEIVCPSRHRWLHDKRADEADNLTRYVYNLATKAGSSGAVDVRHIARHYCGNVVRRLMFNTRYFGKPQPDSGPGPLEVQHVDAVFTSLGLLYSFCVSDYLPWLLGLDLDGHEKMVKEANERVTRLHDAVIDERWRLWKSGERRELEDFLDVLIMLKDAEAGRPVLSIEEVKALLMDITFASMDNPSNAVEWALAEMVNNPTMLKKAVDEIDSVVGQERLVQEHDIPRLNYTKACIREAFRLHPVAPFNVPHVAVADATVAGYRIPKGSHVILSRTGLGRNPDVWDDPLRFDPERHIPLSPEMEVSLVERDLRFISFSTGRRGCIAAALGTDMTIMLFGRLLQGFSWSKMTGVAAIDLSESRHNTFMARPLVLQAKPRLPAHLYPGILLCK
notes: complete open reading frame, untagged as far as told, pESC-Leu2d, Saccharomyces cerevisiae WAT11 microsomes with Arabidopsis CPR1
For B1, the Km (usually the substrate concentration at which the rate is half of its maximum) in series [1] worked out at 117.2 ± 6.0 µM; in series [2], 150.2 ± 9.2 µM.
